In the supplement of paper PMC12042874 one finds amyloid nucleation score data, which are given here for 140 substances.

± gives the uncertainty stated by the source.

This data set is described as follows: amyloid nucleation score (Sup35N fusion, yeast selection) (log enrichment); library NNK1; higher = more nucleation; inactive = no reads after selection. The method in brief: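 Three technical output replicates were used for random libraries. Psi-negative yeast expressing peptides of 20 random codons fused to Sup35N were induced with 100 μM copper sulfate for 24 hours and grown 7 days at 30°C on medium lacking adenine and uracil, and input and output plasmid inserts were Illumina-sequenced, excluding sequences with under 100 input reads. The nucleation score is the DiMSum log enrichment of output over input reads, centred on the mode score of non-aggregating sequences.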
The substance LPMLLFAHITFNMLNDVSPN had an amyloid nucleation score of 5.94 ± 0.086. As for MESLIRFSPASKIVISPFTV, the figure is 0.748 ± 1.2; as for TVKDNHVLEEFVTFYVVYKS, -0.013 ± 0.27. To YYTCSSETM belongs 0.811 ± 0.39; to VWCRNAVDTMLIPMCTTPGY, 0.372 ± 0.6. The substance NLKRPNELWINIETFIRSLH displayed an amyloid nucleation score of 1.32 ± 0.38. To DIVDARFTLTGFKFECVR belongs 0.297 ± 0.28; to DSSWTWKDVV, 0.397 ± 1.2. EYSVYDRYRPGNCCRTSRMD: the amyloid nucleation score was found to be 0.251 ± 0.31. To GNGVLAVTVSFAGTSLSLRF belongs -0.047 ± 1.4; to HSYTTV, -0.905 ± 2.1; to TQRVIGERRMNADCRACRLR, -0.061 ± 1.6. For FKTDRGTRHFDFYYCV, the amyloid nucleation score stood at 0.395 ± 0.21. To WCLWCVQVRFFFNVLFFK belongs 0.95 ± 0.44; to DDTIFLMRAIMVFNLICWCV, “inactive”; to RKVITDKTLL, -0.099 ± 0.45. To NTREVSVRETDCCKLTCMIA belongs 7.743 ± 0.043; to WYLGNAPRGATRA, -0.229 ± 1; to FFMIRRMLVTGWARQCIPRY, -0.105 ± 0.75. The substance RFCRSIAFA registered an amyloid nucleation score of 0.237 ± 0.32. With LSLSYPYFTFAHSVEMRESI, the amyloid nucleation score came out at 9.039 ± 0.053. As for LRGVPLYFDGRHMWYAFSRY, the figure is -0.424 ± 0.47; as for VLSHVGFKSRMSVTNPGCLD, -0.562 ± 0.81; as for GLVSRIAGLIHEIDGRFWMQ, “inactive”. FLTNNLYCTPYF came in with an amyloid nucleation score of 3.19 ± 0.079. As for ICGRNTLCARRRTSRLVGIE, the figure is 1.1 ± 0.97; as for TSPPSKIAVRCGWDSMSLR, 0.309 ± 0.6; as for FTNPRINMSRFSLSFCPARY, 2.1 ± 0.25. To PAPPAQHIYVQRVYSFCQRG belongs -0.161 ± 0.9; to YLWLVWEDV, 0.721 ± 0.69; to HLPGFNIVSYVQSESIMF, -0.08 ± 0.2. To IYGGYEK belongs 0.626 ± 0.84; to EFIKWRAIGENSYGKGDMDR, 0.387 ± 1.

Turning to NVNWKWVGNTLVVSIMVEAN, the amyloid nucleation score entry was “inactive”. Turning to NHPTRPLTTQLGLAAQAKSG, the amyloid nucleation score is -0.153 ± 0.47. The substance GIVHAPCDFHTSSFWW came in with an amyloid nucleation score of -0.147 ± 0.84. To MPDYVVGYHGGWSCNLILRF belongs 2.54 ± 0.19. On to LIIILVQQSEGACRILARD, for which the amyloid nucleation score was found to be 0.028 ± 0.34. On to SSPPDNTKSKATLKALE, for which the amyloid nucleation score is -1.5 ± 2.4.

Turning to QKTASILLPVRYFWCEKSWM, the amyloid nucleation score was -0.667 ± 1.5. As for LHGPN, the figure is 0.705 ± 0.71. Take AVIAMYRVNAPSC: the amyloid nucleation score turned out to be 1.15 ± 0.41.

AIRPSIR returned an amyloid nucleation score of -0.318 ± 0.33. As for SGYLVSSELREFQ, the amyloid nucleation score came to 4.28 ± 0.11. To LYRFWCYALST belongs “inactive”. Consider TFLGGAPVGKIFTLIWLGRG, for which the amyloid nucleation score was found to be 0.52 ± 0.93. To RLLFITYSMVSKYNKCLIRG belongs 0.048 ± 0.74. The substance TEINIASPYWNNSRSGSDMD displayed an amyloid nucleation score of 0.238 ± 0.42. Take FSDCCLSAKRA: the amyloid nucleation score is -0.46 ± 0.73. To CTNATVPASSTERV belongs 1.55 ± 0.5; to RNFPTRCMCIQNYAKL, 2.22 ± 0.17.

HMLWSFLLITWYGMICRKGG had an amyloid nucleation score of -0.15 ± 0.39. IGFRPGRNSVWLMSRDLNFW yielded an amyloid nucleation score of -1.11 ± 1.4.

With SFCLAVGPNLMTIGICMLQQ, the amyloid nucleation score entry was “inactive”.

In the case of IECVS, the amyloid nucleation score was -0.251 ± 0.68. Consider SYWLWTVNTMSLVPFRASCR, for which the amyloid nucleation score worked out at 1.05 ± 0.36. To CLQWPEYPDYSVGGAFRRTG belongs -0.311 ± 0.48. Substance PCFYSSGDVVMNRGV yielded an amyloid nucleation score of -0.507 ± 0.26. For the substance VFVVN, the amyloid nucleation score was -0.557 ± 0.55. To FFILRNQRPIC belongs 1.76 ± 0.2; to GRFRLVMVFCAGNGNAGGER, 1.52 ± 0.52. Consider DNGVLQNNWVIMYCELHHGV, for which the amyloid nucleation score is 5.691 ± 0.052. As for FMSYD, the figure is 0.362 ± 0.79. Regarding DVVTSGILTASSRWYVRRGR, the amyloid nucleation score was -0.729 ± 1.2. As for SYIQLMSMMIFAHMTANRRN, the figure is 1.9 ± 0.42. PMQNSTPLFYSNAWSE displayed an amyloid nucleation score of -0.096 ± 1.1. In turn, LRVTSFMIMQLDLECPRCQI returned an amyloid nucleation score of -0.007 ± 0.46. On to LSCIVW, for which the amyloid nucleation score was -0.366 ± 0.57. Consider VTLSLMCWNFALRFVSLGRS, for which the amyloid nucleation score was 4.02 ± 0.071. CRSSHE: the amyloid nucleation score stood at 0.109 ± 1.4.

Consider VFTSNGNDLPISRSELRLNL, for which the amyloid nucleation score result was “inactive”.

FYPFLQR showed an amyloid nucleation score of 1.48 ± 0.63. To TIIFYVFQCSMLRFIQMV belongs “inactive”. Regarding WFVKLNFLCLCVNMDWHSTY, the amyloid nucleation score came to 0.352 ± 0.28. To SVGEDSSFRRDSKINEGDCD belongs 0.968 ± 0.85. As for QRLFRYNPTKSRGLCNNTWA, the figure is 0.59 ± 0.22. As for SVLLRFYFTRNCGFFGRSTV, the amyloid nucleation score amounted to 0.7 ± 0.97.

Substance WHTRDYLKRRL gave an amyloid nucleation score of 0.906 ± 0.75. The substance LHLNSCSQNITSLHYLPFWA came in with an amyloid nucleation score of -0.113 ± 0.39. As for GLECD, the figure is 0.469 ± 0.43; as for NGFQLTILKDHGLVKRQSPR, “inactive”; as for SQGAMFVTFMFLEYVMPQPP, 3.95 ± 0.089. To CGALWALKV belongs -1.04 ± 0.78; to NVYLGGLVQYFCQWLAGSIR, 0.59 ± 0.62; to RIDDSIFLDFWM, -0.214 ± 0.4. Take ANKLCSVKQQTPRLRWYMGS: the amyloid nucleation score stood at 0.856 ± 0.48.

With NGYELYTDQGGQLVVCDESS, the amyloid nucleation score was -2.07 ± 1.6. As for CHWSCRSEVMPESVTDAGGW, the figure is -0.072 ± 0.67; as for YFRCKFDRASIQHLIASRAH, 3.18 ± 0.19. For DAVSYNSPGGELYDLFNLTA, the amyloid nucleation score was -0.994 ± 0.97. EGYVK: the amyloid nucleation score amounted to 1.1 ± 0.53. To CCYWMASALENRSRRIRLHV belongs -0.612 ± 0.84; to SKILGISKVNCGALL, -1.82 ± 1.8; to TIAKST, -0.885 ± 0.86. WPTLIINDAFILRRRNMDSE: the amyloid nucleation score was -0.223 ± 0.32. TIDERDSAHKSSVFKGLKEI registered an amyloid nucleation score of -0.447 ± 0.33. As for TNRKIQSLPTVCVCIRGSSG, the figure is 2.95 ± 0.11.

On to LMLGCGCECHVSSVSQKENM, for which the amyloid nucleation score was found to be 0.301 ± 1.1. To CFSRHAICT belongs -0.863 ± 0.88; to VKHFLSDMRLFIGPKIFMRC, 4.49 ± 0.062.

Regarding TRVSFYRSKFAFMFYYHVMV, the amyloid nucleation score turned out to be 0.099 ± 0.79.

On to TLYLPGLKPTRHECMDLHQG, for which the amyloid nucleation score result is “inactive”. As for GAFNQSMDSCGFMFPHNMRP, the figure is 0.724 ± 1; as for YWNKITRFFCMLESNVTLHT, 0.207 ± 1.4; as for CYLCSSSF, 1.67 ± 0.24. MTSLFLCKVTRM: the amyloid nucleation score was determined as 0.23 ± 0.6. As for YFWGKHTRFMISY, the figure is 0.018 ± 0.36; as for LNPLVLSCSGEIDSMFNV, 1.11 ± 0.34; as for KGVCMTRHD, -0.136 ± 1.6.

On to CYRPFSQNLPSVMLEFILAE, for which the amyloid nucleation score amounted to 0.146 ± 0.27. To VVSYTVQGGRSSHMANWG belongs 0.35 ± 0.92. As for CLYPVLQVPMCGNMAERQGV, the figure is 0.074 ± 0.69; as for FFGFCSSVES, 0.662 ± 0.51; as for ANTNAFKHLNYILMVLVLQG, “inactive”. Regarding ARWWVRLEYC, the amyloid nucleation score came out at 0.523 ± 0.29. As to FFFNCMRWSCMKVDHTGFVG, the amyloid nucleation score was -0.255 ± 0.47. For LRAIRE, the amyloid nucleation score was found to be 0.33 ± 0.63. For the substance GDRVAEFQFPLSYTRPELSL, the amyloid nucleation score is 0.046 ± 0.72.

WYASRTTSIEYTKVYKCGGP came in with an amyloid nucleation score of 0.599 ± 0.43. Regarding WVRLINSGGQSYFRCGEGRS, the amyloid nucleation score is 0.654 ± 1.2. Take MTRWTGRSLTLMRLQVVLRP: the amyloid nucleation score was -0.413 ± 0.62. In turn, TFSDSLKNLQVMVHYSWVVG yielded an amyloid nucleation score of 0.224 ± 1.4.

In turn, FVVGSRFMKIHVSGGDLGFF registered an amyloid nucleation score of -0.144 ± 0.39. To IRVLVSCVGYPFTCILKVWT belongs 1.18 ± 0.97. To LFHQLRITSVLSYDDKCEAR belongs 0.41 ± 0.2; to SYGNVWYIMYHRLKDTGWYM, 1.4 ± 0.43.

In turn, IYVITVRPNVHNTLMHLIVT had an amyloid nucleation score of 0.374 ± 0.73. As for CYSKKVLHCFKTSCLTLQVT, the figure is 1.27 ± 0.42; as for CMYALT, 0.015 ± 0.39. To CVVWAEVRVR belongs -0.419 ± 0.79.

The substance NVVHRLLWQSSVTSYIAVSY came in with an amyloid nucleation score of 1.86 ± 0.14. YVLIVNWIRSK had an amyloid nucleation score of 4.42 ± 0.075. As for PSKSVCKPCRWSGSWWGER, the figure is 0.073 ± 1.6. RVLIRYQV: the amyloid nucleation score came out at 0.345 ± 0.58. As for CCWNNSLS, the entry is “inactive”.

FMCTINKFLYTVACPWHYLP: the amyloid nucleation score came to 3.96 ± 0.16. In turn, DTLDLQLRNVRLTRACMAQY came in with an amyloid nucleation score of 0.329 ± 0.34.

On to SDDLRMHTHGGGYSGFWKGY, for which the amyloid nucleation score result is “inactive”. As for ILSSGGEKDFNSLYT, the figure is -0.105 ± 0.47.

FLSEMWTKVICWVCCCPVYA returned an amyloid nucleation score of 4.64 ± 0.062.
